Measured values published in patent US20260266838.

Target: T1, Recombinant CC16 (uteroglobin SCGB1A1), P11684
T1 chain: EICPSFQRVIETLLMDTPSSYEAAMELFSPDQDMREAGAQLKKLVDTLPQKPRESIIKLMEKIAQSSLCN

B1: native human neutrophil elastase (protein)
chain: IVGGRRARPHAWPFMVSLQLRGGHFCGATLIAPNFVMSAAHCVANVNVRAVRVVLGAHNLSRREPTRQVFAVQRIFENGYDPVNLLNDIVILQLNGSATINANVQVAQLPAQGRRLGNGVQCLAMGWGLLGRNRGIASVLQELNVTVVTSLCRRSNVCTLVRGRQAGVCFGDSGSPLVCNGLIHGIASFVRGGCASGLYPDAFAPVAQFVNWIDSIIQ
- in vitro cleavage (mass spectrometry of fragments): two peptides with unique amino acid sequences released from HNE-mediated cleavage of CC16 in vitro
